Experimental data published in patent US20070014790A1 (JAPAN SCIENCE AND TECHOLOGY AGENCY, published 2007).

Target: T1, GAL4 DBD alone (pDBD) (yeast, UniProt P04386 1-147)
T1 construct: Control bait
Assay: yeast two-hybrid, β-galactosidase activity

T1 sequence (P04386 1-147 limits assumed): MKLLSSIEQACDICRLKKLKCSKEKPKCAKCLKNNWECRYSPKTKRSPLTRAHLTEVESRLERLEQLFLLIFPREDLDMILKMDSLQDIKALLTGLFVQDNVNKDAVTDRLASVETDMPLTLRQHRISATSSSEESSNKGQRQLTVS

Binder	binding result
GAL4 AD-ZHX1 fusion pAD-ZHX1 (430-564) (other, human, UniProt Q9UKY1 430-564, looked up, not shown: large carriers, range 430-564) QVPAAQPTAETKPATAAVPTSQSVKHETALVNPDSFGIRAKKTKEQLAELKVSYLKNQFPHDSEIIRLMKITGLTKGEIKKWFSDTRYNQRNSKSNQCLHLNNDSSTTIIIDSSDETTESPTVGTAQPKQSWNPF	no binding
GAL4 AD-ZHX3 fusion pAD-ZHX3 (303-364) (other, not shown: large carriers, It is the HD1 region) LSSIPTYNAAMDSNSFLKNSFHKFPYPTKAELCYLTVVTKYPEEQLKIWFTAQRLKQGISWS	no binding
GAL4 AD-ZHX1 fusion pAD-ZHX1 (345-463) (other, human, UniProt Q9UKY1 345-463, looked up, not shown: large carriers, range 345-463) PEEVEEARRKQFNGTVHTVPQTITVIPTHISTGSNGLPSILQTCQIVGQPGLVLTQVAGTNTLPVTAPIALTVAGVPSQNNIQKSQVPAAQPTAETKPATAAVPTSQSVKHETALVNPD	no binding
GAL4 AD alone (pACT2) (other, yeast, UniProt P04386 768-881, looked up, domain: AD; Control prey) ANFNQSGNIADSSLSFTFTNSSNGPNLITTQTNSQALSQPIASSNVHDNFMNNEITASKIDDGNNSKPLSPGWTDQTAYNAFGITTGMFNTTTMDDVYNYLFDDEDTPPNPKKE	no binding
